Results from patent US11623960 (dated 2023).

What was measured:
Assay in all cases: SPR
VEGFR2 (KDR) IgD6-7 = target: T1, VEGFR2 (KDR) IgD6-7 (human, UniProt P35968)
T1 chain: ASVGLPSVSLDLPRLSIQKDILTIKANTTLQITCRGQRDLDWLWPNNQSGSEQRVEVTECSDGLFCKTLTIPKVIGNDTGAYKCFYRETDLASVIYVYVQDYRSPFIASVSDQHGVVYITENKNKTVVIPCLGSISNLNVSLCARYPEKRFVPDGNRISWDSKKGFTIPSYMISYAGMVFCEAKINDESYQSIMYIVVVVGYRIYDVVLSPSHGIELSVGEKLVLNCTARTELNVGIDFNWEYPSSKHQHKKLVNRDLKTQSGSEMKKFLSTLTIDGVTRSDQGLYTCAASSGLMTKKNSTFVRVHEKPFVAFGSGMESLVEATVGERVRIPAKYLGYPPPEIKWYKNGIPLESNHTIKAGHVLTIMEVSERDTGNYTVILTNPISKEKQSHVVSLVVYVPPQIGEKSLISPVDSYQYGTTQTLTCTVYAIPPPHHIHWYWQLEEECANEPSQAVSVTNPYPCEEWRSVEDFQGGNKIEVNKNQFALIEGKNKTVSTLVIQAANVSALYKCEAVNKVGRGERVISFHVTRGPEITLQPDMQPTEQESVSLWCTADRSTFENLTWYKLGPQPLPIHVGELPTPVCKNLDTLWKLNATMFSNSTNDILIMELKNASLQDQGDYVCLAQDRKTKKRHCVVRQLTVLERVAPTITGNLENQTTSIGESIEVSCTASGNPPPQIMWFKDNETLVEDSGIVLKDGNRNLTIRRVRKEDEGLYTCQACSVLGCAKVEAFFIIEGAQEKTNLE

VEGFR3 (Flt-4) IgD6-7 = target: T2, VEGFR3 (Flt-4) IgD6-7 (human, UniProt P35916)
T2 chain: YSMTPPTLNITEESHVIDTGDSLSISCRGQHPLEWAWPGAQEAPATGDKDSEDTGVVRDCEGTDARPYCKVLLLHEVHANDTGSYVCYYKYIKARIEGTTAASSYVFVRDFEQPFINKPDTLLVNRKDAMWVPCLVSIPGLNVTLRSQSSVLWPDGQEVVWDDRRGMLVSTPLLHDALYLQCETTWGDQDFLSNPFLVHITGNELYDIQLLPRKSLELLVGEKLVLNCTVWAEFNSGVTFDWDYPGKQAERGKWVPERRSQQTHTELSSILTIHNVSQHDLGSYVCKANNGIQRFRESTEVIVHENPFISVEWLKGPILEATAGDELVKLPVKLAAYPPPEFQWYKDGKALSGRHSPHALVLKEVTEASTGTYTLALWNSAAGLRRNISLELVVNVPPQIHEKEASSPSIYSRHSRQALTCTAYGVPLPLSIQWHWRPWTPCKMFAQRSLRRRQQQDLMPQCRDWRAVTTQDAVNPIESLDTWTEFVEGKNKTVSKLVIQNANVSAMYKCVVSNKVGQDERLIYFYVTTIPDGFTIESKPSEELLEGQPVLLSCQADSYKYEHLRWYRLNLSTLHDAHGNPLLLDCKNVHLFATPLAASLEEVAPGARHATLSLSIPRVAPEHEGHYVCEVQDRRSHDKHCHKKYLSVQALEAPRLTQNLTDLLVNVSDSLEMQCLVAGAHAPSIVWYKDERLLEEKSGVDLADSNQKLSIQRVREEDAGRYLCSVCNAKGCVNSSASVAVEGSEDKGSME

VEGFR2 (KDR) IgD4-7 = target: T3, VEGFR2 (KDR) IgD4-7 (human, UniProt P35968)
T3 chain: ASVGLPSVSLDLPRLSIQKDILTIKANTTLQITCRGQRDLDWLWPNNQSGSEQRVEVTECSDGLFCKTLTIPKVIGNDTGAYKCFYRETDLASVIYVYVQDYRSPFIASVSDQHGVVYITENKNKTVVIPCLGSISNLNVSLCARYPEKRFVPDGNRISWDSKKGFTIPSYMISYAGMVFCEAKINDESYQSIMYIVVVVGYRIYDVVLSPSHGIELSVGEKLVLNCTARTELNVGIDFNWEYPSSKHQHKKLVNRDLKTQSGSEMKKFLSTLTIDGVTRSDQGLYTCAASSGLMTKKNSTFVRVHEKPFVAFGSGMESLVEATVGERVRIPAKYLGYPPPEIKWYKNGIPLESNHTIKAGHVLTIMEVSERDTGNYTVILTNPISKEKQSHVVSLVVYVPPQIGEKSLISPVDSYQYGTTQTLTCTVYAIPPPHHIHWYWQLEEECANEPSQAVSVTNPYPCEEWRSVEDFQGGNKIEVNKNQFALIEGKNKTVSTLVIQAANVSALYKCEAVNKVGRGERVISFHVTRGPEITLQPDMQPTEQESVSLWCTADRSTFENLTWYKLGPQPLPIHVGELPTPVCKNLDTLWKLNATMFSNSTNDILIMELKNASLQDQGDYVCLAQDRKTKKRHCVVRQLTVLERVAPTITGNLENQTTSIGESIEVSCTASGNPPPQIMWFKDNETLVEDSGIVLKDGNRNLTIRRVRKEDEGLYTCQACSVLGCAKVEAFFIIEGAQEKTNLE

VEGFR3 (Flt-4) IgD4-7 = target: T4, VEGFR3 (Flt-4) IgD4-7 (human, UniProt P35916)
T4 chain: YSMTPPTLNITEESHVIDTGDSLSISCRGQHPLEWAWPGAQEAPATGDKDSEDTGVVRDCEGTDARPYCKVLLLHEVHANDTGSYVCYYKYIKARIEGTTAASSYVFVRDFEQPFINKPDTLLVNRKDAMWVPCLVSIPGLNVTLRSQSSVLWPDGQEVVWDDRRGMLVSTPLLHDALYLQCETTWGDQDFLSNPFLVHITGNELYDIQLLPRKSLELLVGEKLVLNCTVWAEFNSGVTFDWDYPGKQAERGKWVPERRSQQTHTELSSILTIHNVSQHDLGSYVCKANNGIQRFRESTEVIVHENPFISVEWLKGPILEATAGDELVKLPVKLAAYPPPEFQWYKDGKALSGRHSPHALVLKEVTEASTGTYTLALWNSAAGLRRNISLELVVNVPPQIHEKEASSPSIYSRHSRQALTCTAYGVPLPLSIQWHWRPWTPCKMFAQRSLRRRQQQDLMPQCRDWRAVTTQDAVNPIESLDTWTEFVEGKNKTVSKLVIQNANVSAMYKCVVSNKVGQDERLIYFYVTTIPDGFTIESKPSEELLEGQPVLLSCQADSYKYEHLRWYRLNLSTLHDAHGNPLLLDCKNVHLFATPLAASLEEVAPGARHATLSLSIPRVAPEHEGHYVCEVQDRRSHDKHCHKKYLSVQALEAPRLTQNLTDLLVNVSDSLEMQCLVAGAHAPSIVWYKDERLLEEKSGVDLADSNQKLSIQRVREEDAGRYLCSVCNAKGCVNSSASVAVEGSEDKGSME

Binder | Kd (VEGFR2 (KDR) IgD6-7) [nM] | Kd (VEGFR3 (Flt-4) IgD6-7) [nM] | Kd (VEGFR2 (KDR) IgD4-7) [nM] | Kd (VEGFR3 (Flt-4) IgD4-7) [nM]
R2C9-11 (antibody, V domains shown) VH: QVQLQQPGAELVKPGASVKLSCKASGYTFTSYWMHWVKQRPGQGLEWIGEINPSNGRTNYNEKFKSKATLTVDKSSSTAYMQLSSLTSEDSAVYYCANLYFDVWGAGTTVTVSS VL: DIVMTQSPSSLSVSAGEKVTMSCKSSQNLLNSGNQKYYLAWYQQKPGQPPKLLIYGASIRESGVPDRFIGSGSGTDFTLTISSVQAEDLAVYFCQSDHSYPYTFGGGTKLEIK | 1.5 | 4.8 | 0.46 | 1.1
R2C7-1 (antibody, V domains shown) VH: EVQLQQSGPELVKPGASVKISCKASGYSFTDYFINWVIQRHGKSLEWVGRINPYNGGSFYNQKFKDKATLTVDKSSNIAHMELRSLASEDSAIYYCARSGGNGYDYWGQGTTLTVSS VL: DIVMTQAAPSVPVIPGESVSISCRSSKSLLHSNGNTYLYWFLQRPGQSPQLLIYRMSNLASGVPDRFSGSGSGTAFTLRISRVEAEDVGVYYCMQHLEYPYTFGGGTKVEIK | 1.13 | 13 | 2.18 | 3.3
